Measurements taken from patent US20250262210A1 (TRUSTEES OF COLUMBIA UNIVERSITY IN THE CITY OF NEW YORK, published 2025).

Assays:
Assay in all cases: IP/MS, LZTR1 R810W-FLAG, U87
EIF2AK4 = EIF2AK4 (human, UniProt Q9P2K8 1-1649, limits assumed)
Procedure, shortened: (§1)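 Read-out: spectral counts from LC-MS/MS (Orbitrap Fusion) after MaxQuant identification. Variable modifications were Met oxidation, protein N-terminal acetylation and N/Q deamidation.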

SBNO2 = biological target: T1, SBNO2 (human, UniProt Q9Y2G9 1-1366, limits assumed)
T1 sequence (looked up): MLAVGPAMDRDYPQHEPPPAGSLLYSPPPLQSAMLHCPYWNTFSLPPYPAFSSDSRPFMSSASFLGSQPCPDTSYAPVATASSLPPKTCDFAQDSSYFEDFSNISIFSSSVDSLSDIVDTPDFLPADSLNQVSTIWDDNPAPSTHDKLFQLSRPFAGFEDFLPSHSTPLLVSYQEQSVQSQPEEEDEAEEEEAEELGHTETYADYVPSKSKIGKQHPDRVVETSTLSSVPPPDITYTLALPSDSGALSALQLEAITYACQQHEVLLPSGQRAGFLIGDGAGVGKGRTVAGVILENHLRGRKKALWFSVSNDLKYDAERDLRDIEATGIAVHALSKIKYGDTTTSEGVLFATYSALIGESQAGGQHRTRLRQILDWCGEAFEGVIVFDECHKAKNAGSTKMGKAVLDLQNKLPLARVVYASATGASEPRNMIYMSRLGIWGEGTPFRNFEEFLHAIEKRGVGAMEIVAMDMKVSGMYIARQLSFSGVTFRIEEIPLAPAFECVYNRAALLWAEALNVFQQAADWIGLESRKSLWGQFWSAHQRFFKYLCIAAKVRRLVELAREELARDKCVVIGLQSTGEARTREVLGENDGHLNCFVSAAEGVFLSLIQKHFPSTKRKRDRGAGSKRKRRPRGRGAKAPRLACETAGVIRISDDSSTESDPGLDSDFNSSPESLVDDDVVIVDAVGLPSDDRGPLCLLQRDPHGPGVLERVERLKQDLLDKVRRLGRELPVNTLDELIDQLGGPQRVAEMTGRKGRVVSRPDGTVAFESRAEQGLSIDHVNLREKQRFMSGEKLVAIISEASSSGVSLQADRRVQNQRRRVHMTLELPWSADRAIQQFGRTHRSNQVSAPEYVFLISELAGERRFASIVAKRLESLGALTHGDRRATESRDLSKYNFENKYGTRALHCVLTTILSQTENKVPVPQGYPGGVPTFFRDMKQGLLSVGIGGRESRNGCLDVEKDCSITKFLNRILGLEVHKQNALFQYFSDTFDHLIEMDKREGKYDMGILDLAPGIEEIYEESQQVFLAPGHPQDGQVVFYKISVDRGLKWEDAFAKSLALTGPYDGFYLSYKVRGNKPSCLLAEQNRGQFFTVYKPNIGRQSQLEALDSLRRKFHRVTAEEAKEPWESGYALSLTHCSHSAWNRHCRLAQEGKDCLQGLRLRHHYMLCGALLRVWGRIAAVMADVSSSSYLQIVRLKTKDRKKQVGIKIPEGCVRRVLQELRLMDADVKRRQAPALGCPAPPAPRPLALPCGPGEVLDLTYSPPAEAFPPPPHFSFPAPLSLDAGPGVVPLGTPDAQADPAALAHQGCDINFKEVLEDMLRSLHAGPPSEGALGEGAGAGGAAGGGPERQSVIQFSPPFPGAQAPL
Procedure, shortened: as §1

BUB1 = BUB1 (human, UniProt O43683 1-1085, limits assumed)
Procedure, shortened: as §1

Measured: binding result

Chain of BUB1 (O43683 whole entry): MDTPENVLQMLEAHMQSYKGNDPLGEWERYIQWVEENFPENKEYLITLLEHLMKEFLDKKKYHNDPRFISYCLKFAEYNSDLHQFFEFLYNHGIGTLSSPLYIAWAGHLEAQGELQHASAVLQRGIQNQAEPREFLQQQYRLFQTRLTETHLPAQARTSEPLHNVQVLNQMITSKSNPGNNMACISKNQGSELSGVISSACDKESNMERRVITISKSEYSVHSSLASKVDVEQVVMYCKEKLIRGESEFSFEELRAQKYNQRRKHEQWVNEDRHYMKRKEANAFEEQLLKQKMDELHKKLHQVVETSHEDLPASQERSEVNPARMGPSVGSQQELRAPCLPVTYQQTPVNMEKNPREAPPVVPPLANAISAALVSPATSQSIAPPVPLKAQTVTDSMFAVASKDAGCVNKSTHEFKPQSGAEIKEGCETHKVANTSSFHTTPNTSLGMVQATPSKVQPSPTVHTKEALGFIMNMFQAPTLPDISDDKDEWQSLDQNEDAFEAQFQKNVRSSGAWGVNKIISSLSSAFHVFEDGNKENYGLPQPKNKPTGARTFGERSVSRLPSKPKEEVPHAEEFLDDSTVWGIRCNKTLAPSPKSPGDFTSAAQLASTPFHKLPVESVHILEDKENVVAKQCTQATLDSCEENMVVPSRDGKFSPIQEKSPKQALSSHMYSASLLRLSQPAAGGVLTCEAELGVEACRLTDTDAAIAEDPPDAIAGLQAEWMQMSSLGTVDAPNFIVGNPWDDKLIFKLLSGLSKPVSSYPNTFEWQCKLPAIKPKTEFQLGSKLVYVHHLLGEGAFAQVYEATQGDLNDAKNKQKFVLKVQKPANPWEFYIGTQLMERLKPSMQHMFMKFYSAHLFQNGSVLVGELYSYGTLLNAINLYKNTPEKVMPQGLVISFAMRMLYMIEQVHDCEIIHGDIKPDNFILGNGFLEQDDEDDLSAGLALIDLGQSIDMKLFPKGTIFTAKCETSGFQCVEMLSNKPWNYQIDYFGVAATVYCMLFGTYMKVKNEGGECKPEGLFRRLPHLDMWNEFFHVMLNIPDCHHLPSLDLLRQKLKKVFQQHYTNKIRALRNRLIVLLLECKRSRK
Chain of EIF2AK4 (Q9P2K8 whole entry, the tested form may be a part): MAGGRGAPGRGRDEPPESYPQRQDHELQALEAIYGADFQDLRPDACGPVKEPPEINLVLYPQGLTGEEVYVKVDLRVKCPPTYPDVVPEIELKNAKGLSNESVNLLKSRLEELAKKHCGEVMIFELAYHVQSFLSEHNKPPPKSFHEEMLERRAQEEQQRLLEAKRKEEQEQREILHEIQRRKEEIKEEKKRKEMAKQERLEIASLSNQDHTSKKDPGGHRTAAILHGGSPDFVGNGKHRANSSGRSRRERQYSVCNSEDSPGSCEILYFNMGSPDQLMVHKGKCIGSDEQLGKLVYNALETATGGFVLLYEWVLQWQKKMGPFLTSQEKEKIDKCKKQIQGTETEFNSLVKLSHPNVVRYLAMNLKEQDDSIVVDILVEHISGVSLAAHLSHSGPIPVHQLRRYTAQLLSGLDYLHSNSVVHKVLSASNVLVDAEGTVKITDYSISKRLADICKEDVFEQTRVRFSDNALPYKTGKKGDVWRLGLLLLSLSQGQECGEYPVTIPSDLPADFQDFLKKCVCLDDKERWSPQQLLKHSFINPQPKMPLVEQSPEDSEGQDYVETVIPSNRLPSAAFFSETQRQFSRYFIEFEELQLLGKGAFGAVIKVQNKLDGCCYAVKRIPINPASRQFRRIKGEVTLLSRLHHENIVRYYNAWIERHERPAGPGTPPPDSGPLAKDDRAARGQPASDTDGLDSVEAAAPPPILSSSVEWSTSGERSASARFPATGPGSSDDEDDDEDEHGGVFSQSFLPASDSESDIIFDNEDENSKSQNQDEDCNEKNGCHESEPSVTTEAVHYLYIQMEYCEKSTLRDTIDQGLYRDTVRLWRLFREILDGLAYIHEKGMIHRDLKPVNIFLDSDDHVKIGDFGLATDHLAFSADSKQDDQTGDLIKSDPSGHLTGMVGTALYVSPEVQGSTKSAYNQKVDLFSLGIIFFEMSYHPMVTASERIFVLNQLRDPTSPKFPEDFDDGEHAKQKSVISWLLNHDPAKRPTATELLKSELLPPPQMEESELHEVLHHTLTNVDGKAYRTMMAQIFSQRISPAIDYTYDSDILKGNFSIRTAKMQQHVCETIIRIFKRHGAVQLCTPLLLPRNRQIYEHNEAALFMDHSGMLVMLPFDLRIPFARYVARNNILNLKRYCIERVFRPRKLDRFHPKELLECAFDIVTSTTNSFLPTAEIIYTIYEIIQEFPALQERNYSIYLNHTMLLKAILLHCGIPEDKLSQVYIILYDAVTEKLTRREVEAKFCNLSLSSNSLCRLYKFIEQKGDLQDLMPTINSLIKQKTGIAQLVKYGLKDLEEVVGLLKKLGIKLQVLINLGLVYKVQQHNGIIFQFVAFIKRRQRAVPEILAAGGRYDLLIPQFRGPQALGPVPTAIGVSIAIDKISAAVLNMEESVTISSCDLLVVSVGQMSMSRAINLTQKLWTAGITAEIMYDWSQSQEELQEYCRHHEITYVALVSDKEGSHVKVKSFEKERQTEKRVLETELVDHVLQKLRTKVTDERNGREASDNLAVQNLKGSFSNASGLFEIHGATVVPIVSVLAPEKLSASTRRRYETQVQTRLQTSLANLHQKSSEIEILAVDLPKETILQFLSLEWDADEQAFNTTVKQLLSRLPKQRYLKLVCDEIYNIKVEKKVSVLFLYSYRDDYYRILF

B1: LZTR1 R810W-FLAG (other, human, UniProt Q8N653 1-840, looked up)
chain: MAGPGSTGGQIGAAALAGGARSKVAPSVDFDHSCSDSVEYLTLNFGPFETVHRWRRLPPCDEFVGARRSKHTVVAYKDAIYVFGGDNGKTMLNDLLRFDVKDCSWCRAFTTGTPPAPRYHHSAVVYGSSMFVFGGYTGDIYSNSNLKNKNDLFEYKFATGQWTEWKIEGRLPVARSAHGATVYSDKLWIFAGYDGNARLNDMWTIGLQDRELTCWEEVAQSGEIPPSCCNFPVAVCRDKMFVFSGQSGAKITNNLFQFEFKDKTWTRIPTEHLLRGSPPPPQRRYGHTMVAFDRHLYVFGGAADNTLPNELHCYDVDFQTWEVVQPSSDSEVGGAEVPERACASEEVPTLTYEERVGFKKSRDVFGLDFGTTSAKQPTQPASELPSGRLFHAAAVISDAMYIFGGTVDNNIRSGEMYRFQFSCYPKCTLHEDYGRLWESRQFCDVEFVLGEKEECVQGHVAIVTARSRWLRRKITQARERLAQKLEQEAAPVPREAPGVAAGGARPPLLHVAIREAEARPFEVLMQFLYTDKIKYPRKGHVEDVLLIMDVYKLALSFQLCRLEQLCRQYIEASVDLQNVLVVCESAARLQLSQLKEHCLNFVVKESHFNQVIMMKEFERLSSPLIVEIVRRKQQPPPRTPLDQPVDIGTSLIQDMKAYLEGAGAEFCDITLLLDGHPRPAHKAILAARSSYFEAMFRSFMPEDGQVNISIGEMVPSRQAFESMLRYIYYGEVNMPPEDSLYLFAAPYYYGFYNNRLQAYCKQNLEMNVTVQNVLQILEAADKTQALDMKRHCLHIIVHQFTKVSKLPTLWSLSQQLLLDIIDSLASHISDKQCAELGADI
notes: Stably expressed in U87 cells by lentivirus; also called LZTR1-FLAG-R810W; LZTR1 RW; not shown: FLAG tag
binds: all assays above
